Results on two molecules are retold here after patent US20240336672A1.

Conditions in all cases: remark: other sources report otherwise
Experiment [1] concerns the target SARS-CoV-2 RBD (B.1.1.7) domain (SARS-CoV-2). Kind of experiment: ELISA. Details: unit not given beside the values.
Experiment [2] addresses SARS-CoV-2 RBD (P.1) domain (SARS-CoV-2). The experiment in a line: ELISA. Details: unit not given beside the values.
The target of experiment [3] is SARS-CoV-2 RBD (B.1.351) domain (SARS-CoV-2). Kind of experiment: ELISA. Details: unit not given beside the values.
Experiment [4] addresses T1, SARS-CoV-2 kappa variant B.1.617.1/3 RBD domain (SARS-CoV-2). The experiment in a line: ELISA. Further details: unit not given beside the values.
For experiment [5], the target named is SARS-CoV-2 delta plus variant RBD (SARS-CoV-2). The experiment in a line: ELISA. Further details: unit not given beside the values.
Experiment [6] deals with T2, SARS-CoV-2 delta variant B.1.617.2/3 RBD domain (SARS-CoV-2). The experiment in a line: ELISA. Further details: unit not given beside the values.
Experiment [7] concerns the target SARS-CoV-2 RBD (B.1.1.7) domain (SARS-CoV-2). Kind of experiment: RBD/ACE2 blocking ELISA.
Experiment [8] has as its target SARS-CoV-2 RBD (P.1) domain (SARS-CoV-2). The experiment in a line: RBD/ACE2 blocking ELISA.
The target in experiment [9] is SARS-CoV-2 RBD (B.1.351) domain (SARS-CoV-2). Kind of experiment: RBD/ACE2 blocking ELISA.
In experiment [10] the target is T1, SARS-CoV-2 kappa variant B.1.617.1/3 …. Kind of experiment: RBD/ACE2 blocking ELISA.
Experiment [11] has as its target SARS-CoV-2 delta plus variant RBD (SARS-CoV-2). Kind of experiment: RBD/ACE2 blocking ELISA.
In experiment [12] the target is T2, SARS-CoV-2 delta variant B.1.617.2/3 …. The experiment in a line: RBD/ACE2 blocking ELISA.
For experiment [13], the target named is SARS-CoV-2 RBD (B.1.1.7) domain (SARS-CoV-2). Kind of experiment: ELISA.
Experiment [14] has as its target SARS-CoV-2 RBD (P.1) domain (SARS-CoV-2). The experiment in a line: ELISA.
Experiment [15] concerns the target T1, SARS-CoV-2 kappa variant B.1.617.1/3 …. The experiment in a line: ELISA.
In experiment [16] the target is T2, SARS-CoV-2 delta variant B.1.617.2/3 …. The experiment in a line: ELISA.

B1: CT-P59 (parental IgG1 version) (antibody, V domains shown)
VH: QITLKESGPTLVKPTQTLTLTCSFSGFSLSTSGVGVGWIRQPPGKALEWLALIDWDDNKYHTTSLKTRLTISKDTSKNQVVLTMTNMDPVDTATYYCARIPGFLRYRNRYYYYGMDVWGQGTTVTVSS
VL: ELVLTQPPSVSAAPGQKVTISCSGSSSNIGNNYVSWYQQLPGTAPKLLIYDNNKRPSGIPDRFSGSKSGTSATLGITGLQTGDEADYYCGTWDSSLSAGVFGGGTELTVL
Consider B1, for which the AUC turned out to be 3 in experiment [1]; 4 in [2]; 3 in experiment [3]; 3 in experiment [4]; 3 in experiment [5]; 3 in experiment [6]. Also, the % binding inhibition was 86% in experiment [7]; 19% in [8]; 49% in experiment [9]; 94% in experiment [10]; 91% in experiment [11]; 91% in experiment [12].

B2: REG (antibody)
heavy chain variable region (VH): QITLKESGPTLVKPTQTLTLTCSFSGFSLSTSGVGVGWIRQPPGKALEWLALIDWDDNKYHTTSLKTRLTISKDTSKNQVVLTMTNMDPVDTATYYCARIPGFLRYRNRYYYYGMDVWGQGTTVTVSS
light chain variable region (VL): ELVLTQPPSVSAAPGQKVTISCSGSSSNIGNNYVSWYQQLPGTAPKLLIYDNNKRPSGIPDRFSGSKSGTSATLGITGLQTGDEADYYCGTWDSSLSAGVFGGGTELTVL
Regarding B2, the OD405nm amounted to 3.2 in experiment [13], 3.6 in experiment [14], 3.5 in experiment [15] and 3.4 in experiment [16].
